Data as given in paper PMC3807708.

Columns and labels:
[1] = biological target: extracellular domain of human interferon-γ receptor 1 (IFN-γ-Rx), mutant N70G (human) (UniProt P15260); assay: SPR; His-tagged receptor immobilised on Ni2+-coated HTG chip; IFN-γ-SC as analyte; PBST; 20 °C; preliminary data of temperature dependency
[2] = biological target: extracellular domain of human interferon-γ receptor 1 (IFN-γ-Rx), mutant H222R (human) (UniProt P15260); assay: SPR; His-tagged receptor immobilised on Ni2+-coated HTG chip; IFN-γ-SC as analyte; PBST; 35 °C; preliminary data of temperature dependency
[3] = biological target: extracellular domain of human interferon-γ receptor 1 (IFN-γ-Rx), mutant N70G (human) (UniProt P15260); assay: as above
[4] = biological target: extracellular domain of human interferon-γ receptor 1 (IFN-γ-Rx), mutant N96W (human) (UniProt P15260); assay: as above
[5] = biological target: extracellular domain of human interferon-γ receptor 1 (IFN-γ-Rx), mutant S95R (human) (UniProt P15260); assay: as above
[6] = biological target: extracellular domain of human interferon-γ receptor 1 (IFN-γ-Rx), wild type (human) (UniProt P15260); assay: as above
[7] = biological target: IFN-γ-Rx H222R (human) (UniProt P15260); assay: SPR; ProteOn XPR36; His-tagged receptor immobilised on Ni2+-activated HTG chip; IFN-γ-SC as analyte, 1.2 to 99 nM; PBST (PBS pH 7.4, 0.005% Tween20); 25°C; 1:1 Langmuir with drift model; doubly referenced
[8] = biological target: IFN-γ-Rx K115Y (human) (UniProt P15260); assay: as above
[9] = biological target: IFN-γ-Rx N70G + H222R (human) (UniProt P15260); assay: as above
[10] = biological target: IFN-γ-Rx N70G + S95R (human) (UniProt P15260); assay: as above
[11] = biological target: IFN-γ-Rx N96F (human) (UniProt P15260); assay: as above
[12] = biological target: IFN-γ-Rx N96W (human) (UniProt P15260); assay: as above
[13] = biological target: IFN-γ-Rx S71E (human) (UniProt P15260); assay: as above
[14] = biological target: IFN-γ-Rx S95R (human) (UniProt P15260); assay: as above
[15] = biological target: IFN-γ-Rx S95R + H222R (human) (UniProt P15260); assay: as above
[16] = biological target: IFN-γ-Rx T166M (human) (UniProt P15260); assay: as above
[17] = biological target: extracellular domain of human interferon-γ receptor 1 (IFN-γ-Rx), wild type (human) (UniProt P15260); assay: as above

Q: What does the source list for “single-chain form of human interferon-γ (IFN-γ-SC) (ligand)”?
A: Kd [1]: 0.0173 µM; Kd [2]: 0.103 µM; Kd [3]: 0.077 µM; Kd [4]: 0.0243 µM; Kd [5]: 0.153 µM; Kd [6]: 0.0928 µM; Kd [7]: 0.0294 µM; koff [7]: 0.0349 s⁻¹; kon [7]: 1.19e+06 M⁻¹ s⁻¹; Kd [8]: 0.0399 µM; koff [8]: 0.0391 s⁻¹; kon [8]: 979000 M⁻¹ s⁻¹; Kd [9]: 0.0269 µM; koff [9]: 0.0391 s⁻¹; kon [9]: 1.46e+06 M⁻¹ s⁻¹; Kd [10]: 0.0559 µM; koff [10]: 0.0494 s⁻¹; kon [10]: 889000 M⁻¹ s⁻¹; Kd [11]: 0.028 µM; koff [11]: 0.0283 s⁻¹; kon [11]: 1.01e+06 M⁻¹ s⁻¹; Kd [12]: 0.00634 µM; koff [12]: 0.00909 s⁻¹; kon [12]: 1.43e+06 M⁻¹ s⁻¹; fold change of Kd against WT [13]: 2 fold; Kd [14]: 0.0698 µM; koff [14]: 0.0454 s⁻¹; kon [14]: 650000 M⁻¹ s⁻¹; Kd [15]: 0.0563 µM; koff [15]: 0.059 s⁻¹; kon [15]: 1.05e+06 M⁻¹ s⁻¹; Kd [16]: 0.0685 µM; koff [16]: 0.0639 s⁻¹; kon [16]: 933000 M⁻¹ s⁻¹; Kd [17]: 0.0308 µM; koff [17]: 0.0378 s⁻¹; kon [17]: 1.24e+06 M⁻¹ s⁻¹
